Data taken from patent US10369229B2, “Methods and compositions for liposomal formulation of antigens and uses thereof” (priority 2009, dated 2019).

Key:
[1] = Circular dichroism of liposomal lipopeptides (percent helicity); type: physicochemical; settings: formulated in liposomes; estimated from θ222
Protocol: Liposomal lipopeptide samples were prepared as described above with the following modifications. Stock liposome solutions containing 5 mM carrier lipid and 500 μM lipopeptide were prepared in 10 mM phosphate, pH 7.4. To minimize light scattering, liposomes were prepared by bath sonication under argon until a size of less than 100 nm was obtained. For analysis, samples were diluted to 5 μM lipopeptide in 10 mM phosphate buffer containing 1 mM carrier lipid. Spectra were obtained with a J-715 spectrapolarimeter (Jasco, Easton, Md.) and data were processed using Jasco software. Data were acquired in continuous scanning mode with a pathlength of 1 cm, 0.1 nm interval and scan speed of 1 nm/s. Each spectrum represents an average of two scans. A background spectrum of “empty” liposomes in buffer was subtracted from each sample spectrum. Percent helicity was estimated from θ222 according to the method of Taylor and Kaiser.

[2] = tested on: N-MPR (2F5 epitope of HIV-1 gp41 MPR); settings: BALB/C mice, Day 28 sera
Protocol: All animal procedures were conducted in accordance with the policies and approval of the appropriate Institutional Animal Care and Use Committee. 8 week-old female BALB/C mice (Jackson Laboratories, Bar Harbor, Me.) were housed in a pathogen-free barrier facility. Animals received subcutaneous immunizations in alternating hind hocks on Days 0 and 14. Each injection contained 50 μg lipopeptide, 25 μg MPL and 1 μmol lipid vehicle in 50 μL sterile phosphate-buffered saline. On Day 28 blood was collected from the submandibular vein for characterization of antibody responses. Cells were removed by centrifugation at 14,000 rpm for 15 min (5415C, Eppendorf, Westbury, N.Y.) and sera were stored at −80° C. until use.
ELISAs were developed to quantify binding of immune sera to peptides, lipids, and recombinant gp140. Peptide ELISAs were conducted using MPR peptides biotinylated as described above and captured on 96 well streptavidin-coated plates (#15120, Pierce, Rockford, Ill.). Assays were performed according to the manufacturer's instructions with modifications. […] The reaction was stopped with 0.5M H2SO4 and the yellow product was monitored at 450 nm (Optimax, Molecular Devices, Sunnyvale, Calif.). […] IgG1/IgG2a ratios were calculated as an average of optical density quotients measured at 3 dilutions after subtraction of background values. […]

N-MPR: peptide corresponding to the 2F5 epitope of HIV-1 gp41 MPR (SEQ ID NO: 2) (NEQELLELDKWASLWNGGK)
helicity (helical content) [1]: 20.7%
mice with detected anti-peptide response [2]: 2 of 5
